In US20250002574A1 (SUNSHINE LAKE PHARMA, published 2025):
Changes are numbered by the printed parent chain.

T1: IL-11 (UniProt P20809 22-199, limits assumed)
T1 construct: also called IL-11 protein; IL-11 antigen
T1 sequence (looked up): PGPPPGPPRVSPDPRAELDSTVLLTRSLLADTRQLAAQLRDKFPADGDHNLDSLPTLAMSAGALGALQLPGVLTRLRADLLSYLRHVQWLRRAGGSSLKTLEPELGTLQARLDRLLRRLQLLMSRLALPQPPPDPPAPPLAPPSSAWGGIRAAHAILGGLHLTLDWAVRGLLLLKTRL

T2: IL-11 stably expressed on CHO cells (membrane-IL-11 CHO) (UniProt P20809 22-199)
T2 construct: whole, on cells
T2 sequence (looked up): T1 sequence (looked up)

T3: recombinant human protein antigen hu-IL-11-His tag (human, UniProt P20809 22-199)
T3 construct: also called IL-11-His protein; not shown: His tag
T3 sequence (looked up): T1 sequence (looked up)

B1: full-length chimeric antibody constructed by 5-20E11-5F2 (Example 15) (antibody, human IgG1, kappa, V domains shown)
VH: QVQLQQSGAELVRPGTSAKISCKASDYTFTNYWLGWLKQRPGHGLEWIGHIYPGGGYTNYNEKFKGKATLTADTSSSTAYMQLSSLTSEDSAVYFCARVRSGNDALDFWGQGTSVTVSS
VL: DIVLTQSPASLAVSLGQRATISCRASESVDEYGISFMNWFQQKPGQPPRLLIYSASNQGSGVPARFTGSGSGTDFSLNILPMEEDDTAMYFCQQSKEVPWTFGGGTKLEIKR
notes: also called CPD-1; VH+VL
B2: VH1+VL3 full-length humanized antibody (antibody, human IgG1, kappa, V domains shown)
VH: QVQLVQSGAEVKKPGASVKVSCKASDYTFTNYWLGWVRQAPGQGLEWMGHIYPGGGYTNYNEKFKGRVTMTRDTSTSTVYMELSSLRSEDTAVYYCARVRSGNDALDFWGQGTLVTVSS
VL: EIVLTQSPATLSLSPGERATLSCRASESVDEYGISFMNWFQQKPGQAPRLLIYSASNQGSGIPARFSGSGSGTDFTLTISSLEPEDFAVYFCQQSKEVPWTFGGGTKLEIKR
notes: IgG form, IgG1 Fc; also called VH1+VL3 mAb; CPD-2
B3: VH1+VL4 full-length humanized antibody (antibody, human IgG1, kappa, V domains shown)
VH: B2 VH
VL: B2 VL with V89M
notes: IgG form, IgG1 Fc
B4: VH1+VL2 full-length humanized antibody (antibody, human IgG1, kappa, V domains shown)
VH: B2 VH
VL: B2 VL with F40Y
notes: IgG form, IgG1 Fc
B5: 3-15D5-6A1 (antibody, human IgG1, kappa, V domains shown)
VH: EVKLLESGGGLVQPGGSLKLSCAASGFDFRRYWMSWVRQAPGKGLEWIGQINPDSSMINYTPSLKDKFIISRDNAKNTLYLQMSEVRSEDTALYYCATYGHHATDSWGQGTSVTVSS
VL: DIVLTQSPASLAVSLGQRATISCRASESVDSYGNSFMHWYQQKPGQPPKLLIYRASNLESGIPARFSGSGSRTDFTLTINPVEADDVATYYCQQSNEDPFTFGSGTKLEIKR
B6: 3-2B5-3D2 (antibody, human IgG1, kappa, V domains shown)
VH: QVQLKQSGPGLVLPSQSLSITCTVSGFSLTSYGVHWFRQSPGTGLEWLGVIWSGGITDYNATFIPRLSISKDNSKSQVFFKMNSLQADDTAIYYCARNFDGYYYSIDYWGQGTSVTVSS
VL: DIQMTQTTSSLSASLGDRVTISCRASQDISNSLNWYQQKPDGTVKLLIYYTSRLHSGVPSRFTGSGSGTDYSLTISNLEQEDIATYFCQQGNTLPLTFGAGTKLELKR
B7: MIL-11 mab-02 (antibody, IgG1, V domains shown)
VH: B2 VH with R100S
VL: EIVLTQSPATLSLSPGERATLSCRASESVDEYGISFMNWFQQKPGQAPRLLIYSASNQGSGIPARFSGSGSGTDFTLTISSLEPEDFAVYFCQQSKELPWTFGGGTKLEIK
notes: also called 2E2 full-length antibody
B8: MIL-11 mab-03 (antibody, IgG1, V domains shown)
VH: B2 VH with R100S
VL: B7 VL with G59A
notes: also called 1F12 full-length antibody
B9: MIL-11 mab-01 (antibody, IgG1, V domains shown)
VH: B2 VH with R100S, F108L
VL: B7 VL with A55G, Q58E, Q93N, L98V
notes: also called 1E12 full-length antibody

Each binder was assayed against T1, IL-11 (assay: SPR Biacore T200, antibody captured, IL-11 6.25-400 nM).
Description: The measure method included the following steps of capturing the full-length humanized antibody at a flow rate of 10 μL/min. […] The binding time was 180 s, and the dissociation time was 600 s. Finally, the chip was regenerated with 10 mM glycine buffer.

| Kd [nM] | koff [s⁻¹] | kon [M⁻¹ s⁻¹] | Binder |
| --- | --- | --- | --- |
| 6.41 | 0.000433 | 67600 | B1 |
| 9.03 | 0.000474 | 52600 | B2 |
| 10 | 0.000545 | 54300 | B3 |
| 12 | 0.000597 | 49800 | B4 |

What follows are binders tested against T1, IL-11 (assay: flow, IL-11 + antibody on IL-11R cells; lower = more blocking).

| FITC Mean [mean fluorescence] | Binder |
| --- | --- |
| 13600 | B5 |
| 15300 | B6 |

These binders were tested against T2, IL-11 stably expressed on CHO cells … (assay: flow cytometry on membrane-IL-11 CHO cells, detection with goat-anti-Fc-FITC).
Description: The cells were washed 3 times with PBS, and then the flow secondary antibody Goat-anti-Fc-FITC (Abcam, ab98529) was added and detected by flow cytometry. The results were plotted as S-curves in FIG. 11.

| EC50 (read off the curve) [µg/mL] | Binder |
| --- | --- |
| ~2 | B7 |
| ~2 | B2 |
| ~2 | B8 |
| ~3 | B9 |

What follows are binders tested against T3, recombinant human protein antigen … (assay: flow cytometry competition: IL-11-His plus antibody on membrane-IL-11R CHO cells).
Description: The inventors constructed a cell line (membrane-IL-11R CHO) that stably expressing IL-11R. […] Then 1.5*10\hat{ }5 membrane-IL-11R CHO cells (100 μL/well) were added and incubated for 1 h at room temperature. […] Then, the plate was incubated at 4° C. for 1 h, centrifuged at 1500 rpm for 5 min, washed three times with PBS, and resuspended cells in 180 μl PBS, and detected by flow cytometry.

| EC50 [µg/mL] | Binder |
| --- | --- |
| 7.54 | B1 |
| 10.5 | B2 |
| 12.5 | B3 |
| 11.6 | B4 |

These binders were tested against T1, IL-11 (assay: BLI (Fortebio), antibody on AHC sensor, IL-11 3.91-125 nM).
Description: (§1) The determination method consisted of the following steps: the humanized antibody was captured by an AHC sensor. […] Finally, the sensor was regenerated with 10 mM glycine (pH 1.7) buffer.

| Kd [nM] | koff [s⁻¹] | kon [M⁻¹ s⁻¹] | Binder |
| --- | --- | --- | --- |
| 0.242 | 0.00013 | 535000 | B7 |
| 2.84 | 0.000609 | 214000 | B2 |
| 0.262 | 0.000152 | 580000 | B8 |
| 1.17 | 0.000584 | 501000 | B9 |

These binders were tested against T1, IL-11 (assay: ELISA on IL-11, monoclonal hybridoma antibody).

| OD450 [OD450] | Binder |
| --- | --- |
| 1.51 | B5 |
| 1.61 | B6 |

Each binder was assayed against T1, IL-11 (assay: BLI (Fortebio), antibody on AHC sensor, IL-11 as analyte).
Description: as §1

| fold increase of affinity against the humanized antibody VH1+VL3 [fold] | Binder |
| --- | --- |
| 10 | B7 |
| 10 | B8 |
